Data: IntAct's records for PubMed 8922390

Experiments:
fak1_chick PTK2 = fak1_chick PTK2 (UniProt Q00944)
fak1_chick PTK2, sequence (Q00944 whole entry): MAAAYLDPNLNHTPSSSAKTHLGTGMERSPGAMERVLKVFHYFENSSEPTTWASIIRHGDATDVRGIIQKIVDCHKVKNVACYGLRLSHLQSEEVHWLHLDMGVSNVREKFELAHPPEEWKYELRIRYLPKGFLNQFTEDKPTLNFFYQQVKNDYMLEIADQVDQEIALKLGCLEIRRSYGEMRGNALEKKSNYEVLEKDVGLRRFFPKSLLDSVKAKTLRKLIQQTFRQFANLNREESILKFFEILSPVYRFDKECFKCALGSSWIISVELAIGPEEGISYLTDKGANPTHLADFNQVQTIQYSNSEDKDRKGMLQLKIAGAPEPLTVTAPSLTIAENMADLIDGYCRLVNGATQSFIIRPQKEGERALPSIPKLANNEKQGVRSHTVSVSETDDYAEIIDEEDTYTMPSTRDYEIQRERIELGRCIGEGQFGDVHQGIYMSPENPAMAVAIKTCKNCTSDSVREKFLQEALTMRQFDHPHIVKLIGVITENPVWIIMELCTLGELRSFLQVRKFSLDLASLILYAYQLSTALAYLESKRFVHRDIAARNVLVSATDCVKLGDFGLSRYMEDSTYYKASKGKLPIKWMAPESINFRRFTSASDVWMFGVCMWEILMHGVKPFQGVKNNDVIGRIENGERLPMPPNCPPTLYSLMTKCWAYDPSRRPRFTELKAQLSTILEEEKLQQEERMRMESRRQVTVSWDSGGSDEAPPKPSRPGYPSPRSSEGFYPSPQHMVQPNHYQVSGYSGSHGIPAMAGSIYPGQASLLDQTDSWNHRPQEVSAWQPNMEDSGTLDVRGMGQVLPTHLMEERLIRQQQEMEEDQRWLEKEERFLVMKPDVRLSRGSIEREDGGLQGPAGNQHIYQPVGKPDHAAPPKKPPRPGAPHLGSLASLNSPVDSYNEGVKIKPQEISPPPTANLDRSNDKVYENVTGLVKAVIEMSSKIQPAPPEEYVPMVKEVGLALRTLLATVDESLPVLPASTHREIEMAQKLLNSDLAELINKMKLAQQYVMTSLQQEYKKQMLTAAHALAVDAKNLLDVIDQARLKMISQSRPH

VCL, P12003-1, sequence (P12003 other isoform, or with tags, fused parts or gaps): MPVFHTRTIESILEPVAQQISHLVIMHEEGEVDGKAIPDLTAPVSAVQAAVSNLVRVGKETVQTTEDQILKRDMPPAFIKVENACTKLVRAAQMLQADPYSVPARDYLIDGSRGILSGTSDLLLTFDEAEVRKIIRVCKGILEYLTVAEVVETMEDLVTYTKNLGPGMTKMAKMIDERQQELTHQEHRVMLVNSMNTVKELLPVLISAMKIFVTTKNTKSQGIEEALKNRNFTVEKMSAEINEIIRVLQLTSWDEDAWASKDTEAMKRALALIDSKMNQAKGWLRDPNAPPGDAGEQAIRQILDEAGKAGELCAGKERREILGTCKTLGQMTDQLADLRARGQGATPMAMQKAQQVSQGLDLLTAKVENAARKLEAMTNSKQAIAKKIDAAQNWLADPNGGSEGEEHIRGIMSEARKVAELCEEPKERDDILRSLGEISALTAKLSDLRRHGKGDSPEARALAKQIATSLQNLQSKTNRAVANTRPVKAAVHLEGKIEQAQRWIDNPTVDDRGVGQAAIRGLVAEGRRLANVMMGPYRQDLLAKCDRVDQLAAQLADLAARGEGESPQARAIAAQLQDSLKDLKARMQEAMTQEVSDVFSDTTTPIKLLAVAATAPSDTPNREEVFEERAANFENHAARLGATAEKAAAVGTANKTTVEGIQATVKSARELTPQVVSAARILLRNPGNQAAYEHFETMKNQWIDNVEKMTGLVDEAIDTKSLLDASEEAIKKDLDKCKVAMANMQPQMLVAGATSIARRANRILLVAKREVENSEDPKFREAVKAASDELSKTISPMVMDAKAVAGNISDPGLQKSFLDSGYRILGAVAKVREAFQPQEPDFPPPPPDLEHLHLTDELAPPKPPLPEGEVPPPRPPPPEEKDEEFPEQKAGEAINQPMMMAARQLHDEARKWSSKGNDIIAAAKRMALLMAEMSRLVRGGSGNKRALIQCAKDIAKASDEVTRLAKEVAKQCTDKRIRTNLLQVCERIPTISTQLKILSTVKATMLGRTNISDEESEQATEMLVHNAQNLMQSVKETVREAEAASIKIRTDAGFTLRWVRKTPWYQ
Paxillin (Gallus gallus (Chicken)), P49024 D146N;R147Q, sequence (P49024 whole entry D146N/R147Q): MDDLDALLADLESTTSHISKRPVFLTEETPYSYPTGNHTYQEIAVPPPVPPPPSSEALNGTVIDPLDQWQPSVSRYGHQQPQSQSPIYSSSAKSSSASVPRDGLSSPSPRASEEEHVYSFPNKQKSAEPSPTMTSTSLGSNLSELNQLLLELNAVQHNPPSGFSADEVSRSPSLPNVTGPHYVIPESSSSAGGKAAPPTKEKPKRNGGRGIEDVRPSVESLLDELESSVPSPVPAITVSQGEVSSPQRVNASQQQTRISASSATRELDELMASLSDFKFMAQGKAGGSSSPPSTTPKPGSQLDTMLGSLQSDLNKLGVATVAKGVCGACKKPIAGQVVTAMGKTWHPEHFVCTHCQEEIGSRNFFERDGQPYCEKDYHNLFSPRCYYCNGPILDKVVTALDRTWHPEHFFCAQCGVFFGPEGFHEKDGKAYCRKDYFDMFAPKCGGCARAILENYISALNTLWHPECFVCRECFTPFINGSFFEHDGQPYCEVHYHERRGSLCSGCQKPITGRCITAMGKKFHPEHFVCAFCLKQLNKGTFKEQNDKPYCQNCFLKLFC
Paxillin (Gallus gallus (Chicken)), P49024 E151Q, sequence (P49024 whole entry E151Q): as the sequence (P49024 whole entry D146N/R147Q) above, with N146D, Q147R, E151Q counted along it

Row | effect of a mutation on the interaction (VCL, P12003-1) | effect of a mutation on the interaction (fak1_chick PTK2) | Substance
1 | decreasing interaction | decreasing interaction | Paxillin (Gallus gallus (Chicken)), P49024 D146N;R147Q
2 | decreasing interaction |  | Paxillin (Gallus gallus (Chicken)), P49024 E151Q
